From patent US9951373B2, “Oplophorus-derived luciferases, novel coelenterazine substrates, and methods of use” (Promega Corporation, priority 2010, dated 2018) come the findings set out here.

Assay [1] deals with heat shock response element (HRE). The experiment in a line: Transcriptional reporter, bulk transfection, HRE in HeLa cells. To be noted: 6 h. The assay is classed as cell-based. On the procedure: (§1) The transcriptional reporter containing HRE and 9B8 opt-P was used in the bulk transfection of HeLa cells
(§2) HEK293, NIH3T3, or HeLa cells were plated to a single well of a 6-well tissue culture plate the day before transfection at a density of 4.5×10^5 cells/well in 3 mL complete medium (DMEM+10% FBS+1×NEAA+1× sodium pyruvate) for HEK293 cells, 3×10^5 cells/well in 3 mL complete medium (DMEM+10% fetal calf serum (FCS)+1×NEAA+1× sodium pyruvate) for NIH3T3 cells, or 9.9×10^5 cells/well in 3 mL complete medium (DMEM+10% FBS+1×NEAA) for HeLa cells. Cells were grown overnight at 37° C.
(§3) 3,300 ng of reporter plasmid DNA in 155 μL OPTI-MEM® was mixed with 9.9 μL FUGENE® HD transfection reagent, vortexed briefly, and incubated at room temperature for 10 min. The CRE transcriptional reporters were used to transfect HEK293 and NIH3T3 cells. The HRE transcriptional reporters were used to transfect HeLa cells. The reporter mixture was added to cells and mixed by gentle rocking followed by incubation at 37° C. for 6 hrs (HEK293 and NIH3T3) or 3 hrs (HeLa). […]
(§4) FSK (CRE stimulator) or 17-AAG (HRE stimulator; 17-Allylamino-demethoxy geldanamycin) in OPTI-MEM® was added to the cells (10 nM or 10 μM final concentration for FSK; 1 nM or 1 μM final concentration for 17-AAG) and incubated at 37° C. for 4 hrs (FSK) or 6 hrs (17-AAG). […] Luminescence was measured on a GLOMAX® Luminometer.

Assay [2] relates to cAMP response element (CRE). The experiment in a line: Transcriptional reporter, forward transfection, CRE in HEK293 cells. The assay is classed as cell-based, human. To be noted: 3 h; for baseline: 10 nM FSK. On the procedure:
HEK293 cells were plated at 15,000 cells/well in six 96-well tissue culture plates. Cells were grown in 100 μL of DMEM+10% FBS+1× non-essential amino acids (NEAA) and incubated overnight at 37° C. The cells were transiently transfected with either 10 ng or 100 ng plasmid DNA/well of pGL4.29 9B8 opt, pGL4.29 9B8 opt-P, or pGL4.29. Plasmid DNA was mixed with 850 μL of OPTI-MEMO (Invitrogen) and 32.4 μL of FUGENE® HD transfection reagent (Promega Corp.) and incubated at room temperature for 10 min. Eight μL of the transfection/reporter DNA mixture was added to the appropriate wells (2 constructs/plate). Cells were incubated for 4 hrs at 37° C. The medium was replaced with OPTI-MEM®+0.5% dialyzed FBS+1×NEAA+1× sodium pyruvate+1× Penn-Strep and incubated overnight at 37° C.
A lytic reagent containing 100 mM MES pH 6.1, 1 mM CDTA, 150 mM KCl, 35 mM thiourea, 2 mM DTT, 0.25% TERGITOLO NP-9 (v/v), 0.025% MAZUO DF 204, and 20 μM PBI-3939 was added to the cells containing pGL4.29 9B8 opt or pGL4.29 9B8 opt-P and allowed to incubated for 10 min at room temperature (100 μL lytic reagent added to 100 μL cells). ONE-GLO™ assay reagent (Promega Corp.) was added to cells containing pGL4.29 and used according to the manufacturer's protocol (100 μL reagent added to 100 μL cells). Luminescence was measured on a GLOMAX® Luminometer.

The subject of assay [3] is CRE. The experiment in a line: Transcriptional reporter, bulk transfection, CRE in HEK293 cells. It counts as cell-based, human. To be noted: HEK293, 10 nM FSK, 4 h. On the procedure:
as §1, §2, §3, §4

For assay [4], the system named is antioxidant response element (ARE). The experiment in a line: Transcriptional reporter, reverse transfection, ARE in HEK293 cells. It counts as cell-based, human. The note with it: 100 ng DNA, 24 h. On the procedure:
HEK293 cells were trypsinized (T75 flask, 3 mL trypsin) and resuspended in […] (approximately 8.9×10^6 total cells) in medium containing DMEM+10% FBS+1×NEAA. Each transcriptional reporter was prepared for transfection by mixing 1.2 mL OPTI-MEM®, 12 μL transcription reporter DNA (100 ng) and 36 μL FUGENE® HD transfection reagent together and incubated at room temperature for 35 min. Following incubation, 624 μL of the transfection/reporter DNA mixture was added to 12 mL of cell suspension and mixed by inversion. After mixing, 100 μL of the cell/DNA mixture was added to wells of a 96-well plate (2 constructs/plate). The cells were incubated at 37° C. for 22 hrs. Tert-butylhydroquinone (a Nrf2 stabilizer; tBHQ; 1 μM (“baseline”) or 20 μM) or sulphoraphane, (an organosulfer antioxidant known to activate Nrf2; 1 μM (“baseline”) or 20 μM) in OPTI-MEM® was added to each well and incubated at 37° C. for 24 hrs. Cells were lysed with 100 μL lytic reagent as described above for the forward transfection. Luminescence was measured on a GLOMAX® Luminometer.

Assay [5] concerns CRE. The experiment in a line: Transcriptional reporter, bulk transfection, CRE in NIH3T3 cells. It counts as cell-based. The note with it: NIH3T3, 10 nM FSK, 4 h. On the procedure:
as §1, §2, §3, §4

B1: 9B8 opt-P: 9B8 opt further comprising the PEST protein degradation sequence (SEQ ID NO: 65) (protein)
chain: MVFTLEDFVGDWRQTAGYNLDQVLEQGGLSSLFQKLGVSVTPIQKIVLSGENGLKIDIHVIIPYEGLSGYQMGQIEKIFKVVYPVDDHHFKVILHYGTLVIDGVTPNMIDYFGRPYEGIAVFDGKKITVTGTLWNGNKIIDERLINPDGSLLFRVTINGVTGWRLCERILANSHGFPPEVEEQAAGTLPMSCAQESGMDRHPAACASARINV
modifications: PEST degradation sequence
For B1, the baseline is 278,118 RLU in assay [1]; 11179 RLU in assay [2] (10 ng DNA); 122,071 RLU in assay [2] (100 ng DNA); 3,960,000 RLU in assay [3]; 258,406 RLU in assay [4] (1 μM sulphoraphane); 317,238 RLU in assay [4] (1 μM tBHQ). Also, in assay [5], the baseline was 410,461 RLU. In addition, the “RLU (10 µM FSK)” value in assay [2] (10 ng DNA) is listed as 1,353,459 RLU; in assay [2] (100 ng DNA) it was 20,544,753 RLU. The Response in assay [2] (10 ng DNA) came out at 121; in assay [2] (100 ng DNA), 168. For the same molecule, the “RLU (20 μM sulphoraphane)” value in assay [4] is given as 3,940,000 RLU. Further, the “RLU (20 μM tBHQ)” value in assay [4] is on record as 8,460,000 RLU.
